Patent US20080119406A1

B1: recombinant caltrin (mouse, V5/His-tagged, secreted from baculovirus-infected Sf-9 cells) (ligand, not shown: small tags and cut ends)
chain: LICNSCEKSRDSRCTMPQSRCVAKPGESCSTVSHFVGTKHVYSKQMCSPQCKEKQLNTGKKLIYIMCCEKNLCNSF
B2: ^125I-caltrin (radiolabelled recombinant caltrin) (ligand, not shown: small tags and cut ends)
chain: B1 chain
modifications: 125I label by the lactoperoxidase method; labelled residues not stated

Columns and labels:
[1] = molecular target: unidentified caltrin receptor on primary mouse calvarial osteoblasts (mouse); experiment: competition curve: unlabelled caltrin against 10 ng 125I-caltrin on primary calvarial osteoblasts, 4 C, 2 h
[2] = molecular target: unidentified caltrin binding site on ST2 osteoblast-like cells; experiment: FACS-based binding, anti-caltrin and labelled anti-rabbit antibody
[3] = molecular target: unidentified caltrin binding site on COS-7 monkey kidney cells (monkey); experiment: as above
[4] = molecular target: unidentified caltrin receptor on primary mouse calvarial osteoblasts (mouse); experiment: saturation binding of 125I-caltrin on 2×10^5 primary mouse calvarial osteoblasts, Scatchard analysis

| Binder | Kd [1] [nM] | binding sites per cell (Bmax) (binding sites per cell) [1] | shift in the mean fluorescence [2] [%] | shift in the mean fluorescence [3] [%] | Kd [4] [nM] | binding sites per cell (binding sites per cell) [4] |
| --- | --- | --- | --- | --- | --- | --- |
| B1 | 2.2 | 14000 | 75 | 80 |  |  |
| B2 |  |  |  |  | 1.2 | 60000 |
